Square brackets hold non-standard residues; d marks the D form. Ends that are not written are not given here. * marks the point of attachment. DAMP‑2 = 1,3-bis(2-cyclohexylethyl) substitution on the histidine imidazole ring (1,3-bis(2-cyclohexylethyl)-2,3-dihydro-1H-imidazol-4-yl side chain), C1=C(*)N(CCC2CCCCC2)CN1CCC1CCCCC1; 2‑(4-tert-butyl)phenyl = 2-(4-tert-butylphenyl) substituent on the histidine imidazole (2-(4-(tert-butyl)phenyl)-1H-imidazol-4-yl), CC(C)(C)c1ccc(*)cc1; DAMP‑5 = 3-(2-cyclohexylethyl) substitution on the histidine imidazole ring (3-(2-cyclohexylethyl)-2,3-dihydro-1H-imidazol-4-yl side chain); DAMP‑3 = 1,3-diphenethyl substitution on the histidine imidazole ring (1,3-diphenethyl-2,3-dihydro-1H-imidazol-4-yl side chain); thiophene = 2-(thiophen-2-yl) substituent on the histidine imidazole (2-(thiophen-2-yl)-1H-imidazol-4-yl), c1csc(*)c1; 4‑methoxybenzhydryl = (4-methoxyphenyl)(phenyl)methyl on the His imidazole, COc1ccc(C(c2ccccc2)*)cc1; 1,2‑diphenyl = 1,2-diphenyl substituents on the histidine imidazole (1,2-diphenyl-1H-imidazol-4-yl); 1‑phenyl = 1-phenyl substituent on the histidine imidazole (1-phenyl-1H-imidazol-4-yl), c1ccc(*)cc1; 2‑phenyl = 2-phenyl substituent on the histidine imidazole (2-phenyl-1H-imidazol-4-yl), c1ccc(*)cc1; 4‑hydroxybenzhydryl = (4-hydroxyphenyl)(phenyl)methyl on the His imidazole, Oc1ccc(C(c2ccccc2)*)cc1; Tyr(3,5-(NO2)2) = N[C@@H](Cc1cc([N+](=O)[O-])c(O)c([N+](=O)[O-])c1)C(=O)O; Tyr(3-NO2) = N[C@@H](Cc1ccc(O)c([N+](=O)[O-])c1)C(=O)O; 4‑methoxylbenzhydryl = COc1ccc(C(c2ccccc2)*)cc1; Biotin = O=C1N[C@H]2[C@H](CS[C@H]2CCCCC(=O)*)N1; dPhe(4-CF3) = N[C@H](Cc1ccc(C(F)(F)F)cc1)C(=O)O; 1‑(4-tert-butyl)phenyl = CC(C)(C)c1ccc(*)cc1; Tyr(3-Cl) = N[C@@H](Cc1ccc(O)c(Cl)c1)C(=O)O; Tyr(3-NH2) = Nc1cc(C[C@H](N)C(=O)O)ccc1O; dPhe(4-Cl) = N[C@H](Cc1ccc(Cl)cc1)C(=O)O; dPhe(4-Me) = Cc1ccc(C[C@@H](N)C(=O)O)cc1; Mtt = Cc1ccc(C(c2ccccc2)(c2ccccc2)*)cc1; Trt = c1ccc(C(c2ccccc2)(c2ccccc2)*)cc1; Benzhydryl = c1ccc(C(c2ccccc2)*)cc1; 2‑cyclohexylethyl = C1CCC(CC*)CC1; Tos = Cc1ccc(S(=O)(=O)*)cc1; Octanoyl = CCCCCCCC(=O)*
Target: T1, GPR39 (G protein coupled receptor 39) (UniProt O43194 1-453, limits assumed)
T1 sequence (looked up): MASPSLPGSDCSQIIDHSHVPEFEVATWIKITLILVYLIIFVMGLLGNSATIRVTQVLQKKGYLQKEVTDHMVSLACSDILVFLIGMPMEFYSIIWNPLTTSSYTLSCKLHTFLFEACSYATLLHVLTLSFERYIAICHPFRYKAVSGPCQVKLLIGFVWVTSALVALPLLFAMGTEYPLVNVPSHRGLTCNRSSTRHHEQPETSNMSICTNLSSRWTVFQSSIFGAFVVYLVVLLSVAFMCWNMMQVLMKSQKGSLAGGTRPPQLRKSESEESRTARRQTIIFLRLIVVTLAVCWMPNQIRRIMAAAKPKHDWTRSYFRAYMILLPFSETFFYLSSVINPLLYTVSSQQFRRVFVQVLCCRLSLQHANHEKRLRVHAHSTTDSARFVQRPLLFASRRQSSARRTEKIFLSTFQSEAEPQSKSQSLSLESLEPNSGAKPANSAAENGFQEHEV
Experiment: cell-based or functional assay

Binder	EC50; SRE-luciferase reporter [nM]	ECmax; SRE-luciferase reporter
H(Trt)K(Octanoyl)[dPhe(4-CF3)]Y-OH [HKFY-76]	7	14.2 -fold induction over basal
K(Octanoyl)H(Trt)FY [HKFY-55]	2490	16.8 -fold induction over basal
H(Benzhydryl)K(Octanoyl)[dPhe(4-Me)][Tyr(3-Cl)]-OH [HKFY-67]	43	10.2 -fold induction over basal
H(Benzhydryl)K(Octanoyl)[dPhe(4-Me)][Tyr(3-NO2)]-OH [HKFY-68]	13	10.8 -fold induction over basal
H(Tos)K(Octanoyl)[dPhe(4-Me)]Y-OH [HKFY-75]	1	15.9 -fold induction over basal
H(Trt)GSK(Octanoyl)FY-OH [HKFY-53]	340	8 -fold induction over basal
H(Trt)K(Octanoyl)[dF]Y-OH (not fully specified; printed as His(trt)-Lys(caprylic)-d-Phe-Tyr) [HKFY-12]	35	20.7 -fold induction over basal
H(4‑methoxybenzhydryl)K(Octanoyl)[dPhe(4-Me)]Y-OH [HKFY-64]	7	16 -fold induction over basal
H(1,2‑diphenyl)K(Octanoyl)[dPhe(4-Me)]Y-OH [HKFY-59]	550	6.76 -fold induction over basal
HK(Octanoyl)FY (not fully specified (residue 1)) [HKFY-17]	8120	20 -fold induction over basal
H(Trt)[dK](Octanoyl)[dPhe(4-Cl)]Y [HKFY-16]	240	27.9 -fold induction over basal
H(DAMP‑5)K(Octanoyl)FY [HKFY-7]	1560	16 -fold induction over basal
H(Benzhydryl)K(Octanoyl)[dPhe(4-Me)][Tyr(3,5-(NO2)2)] [HKFY-69]	15	12.2 -fold induction over basal
[dH](Trt)K(Octanoyl)[dPhe(4-Cl)][dY] [HKFY-14]	20	20.9 -fold induction over basal
H(Trt)K(Octanoyl)FY [HKFY-1]	150	20.5 -fold induction over basal
His(Benzhydryl)-Lys(Octanoyl)-OH [HKFY-79]	970	11.2 -fold induction over basal
H(Trt)K(Octanoyl)FS [HKFY-50]	700	16.2 -fold induction over basal
H(Benzhydryl)K(Octanoyl)[dPhe(4-Me)][Tyr(3-NH2)]-OH [HKFY-70]	20	10.1 -fold induction over basal
H(DAMP‑2)K(Octanoyl)FY [HKFY-8]	33600	17.3 -fold induction over basal
H(DAMP‑3)K(Octanoyl)FY [HKFY-6]	68400	15 -fold induction over basal
H(Trt)K(Octanoyl)[dPhe(4-Cl)][dY] [HKFY-15]	98	24.7 -fold induction over basal
H(Benzhydryl)K(Octanoyl)[dPhe(4-Me)]Y-NH2 [HKFY-66]	11	20.2 -fold induction over basal

Binder	EC50; SRE-luciferase reporter [nM]	ECmax; SRE-luciferase reporter
H(2‑phenyl)K(Octanoyl)[dPhe(4-Me)]Y-OH [HKFY-57]	260	8.5 -fold induction over basal
H(1‑(4-tert-butyl)phenyl)K(Octanoyl)[dPhe(4-Me)]Y-OH [HKFY-61]	20	9.88 -fold induction over basal
H(2‑phenylethyl)K(Octanoyl)FY-OH (not fully specified) [HKFY-9]	42700	21 -fold induction over basal
Biotin-H(Trt)K(Octanoyl)FY [HKFY-2]	140	15 -fold induction over basal
H(2‑(4-tert-butyl)phenyl)K(Octanoyl)[dPhe(4-Me)]Y-OH [HKFY-60]	190	28.2 -fold induction over basal
HK(Octanoyl)FY (not fully specified; also: His1 substituent: phenethyl or phenylpropyl) [HKFY-19]	24600	18 -fold induction over basal
H(Fm)K(Octanoyl)FY [HKFY-18]	2290	10 -fold induction over basal
H(4‑methoxylbenzhydryl)K(Octanoyl)FY [HKFY-20]	159000	20.3 -fold induction over basal
HK(Octanoyl)FY (not fully specified (residue 1)) [HKFY-10]	46500	14 -fold induction over basal
H(thiophene)K(Octanoyl)[dPhe(4-Me)]Y-OH [HKFY-63]	6	13.5 -fold induction over basal
H(Trt)K(Octanoyl)[dPhe(4-Cl)]Y [HKFY-13]	14	25.7 -fold induction over basal
Biotin-H(Benzhydryl)K(Octanoyl)[dPhe(4-Me)]Y-OH [HKFY-72]	11	10.4 -fold induction over basal
H(Trt)K(Octanoyl)LY-OH [HKFY-51]	120	14.4 -fold induction over basal
H(1‑phenyl)K(Octanoyl)[dPhe(4-Me)]Y-OH [HKFY-58]	20	9.12 -fold induction over basal
Lys(Octanoyl)-Phe-Tyr [HKFY-54]	25900	7.8 -fold induction over basal
[dH](Benzhydryl)K(Octanoyl)[dPhe(4-Me)]Y-OH [HKFY-62]	830	28.1 -fold induction over basal
H(Trt)FYDQQARF (also: C-terminal Phe amide in IUPAC name, not in sequence formula) [HKFY-52]	56400	15.5 -fold induction over basal
H(Trt)K(caproic)FYDQQARF (also: C-terminal Phe amide in IUPAC name, not in sequence formula) [HKFY-56]		14.9 -fold induction over basal
H(4‑hydroxybenzhydryl)K(Octanoyl)[dPhe(4-Me)]Y-OH [HKFY-65]	3	18.3 -fold induction over basal
H(Mtt)K(Octanoyl)FY [HKFY-5]	1840	16 -fold induction over basal
H(2‑cyclohexylethyl)K(Octanoyl)FY [HKFY-11]	57800	22 -fold induction over basal
